Laboratory results taken from patent publication US20140072581A1.
Each block holds one substance with its values, some of them ahead of it.

What was measured:
[1] = molecular target: CD3 on HBP-ALL (CD3+) cells (UniProt P07766); experiment: live cell ELISA on HBP-ALL (CD3+) cells; OD450 grade at 1/60 dilution
[2] = molecular target: CD19 on RAJI (CD19+) cells (UniProt P15391); experiment: live cell ELISA on RAJI (CD19+) cells; legend: OD450 below 0.100 at 1/60 dilution, but higher dilutions positive (higher than neg control)
HER2 [3] = molecular target: HER2 (UniProt P04626); experiment: SPR; storage 7 d RT; SD 1.E-10
HER2 [4] = molecular target: HER2 (UniProt P04626); experiment: SPR; storage -80 (fresh protein); SD 1.E-10; control row printed a second time
HER2 [5] = molecular target: HER2 (UniProt P04626); experiment: SPR; storage 7 d RT; SD 1.E-10; control row printed a second time
HER2 [6] = molecular target: HER2 (UniProt P04626); experiment: SPR; storage -80 (fresh protein); SD 1.E-10
HER2 [7] = molecular target: HER2 (UniProt P04626); experiment: SPR; average of measurements with different directionality
Tissue factor (TF) [8] = molecular target: Tissue factor (TF) (UniProt P13726); experiment: SPR; storage 7 d RT; SD 2.E-11; control row printed a second time
Tissue factor (TF) [9] = molecular target: Tissue factor (TF) (UniProt P13726); experiment: SPR; storage 7 d RT; SD 2.E-11
Tissue factor (TF) [10] = molecular target: Tissue factor (TF) (UniProt P13726); experiment: SPR; Fab captured on anti-hIgG chip, TF flowed over at 300 nM
Tissue factor (TF) [11] = molecular target: Tissue factor (TF) (UniProt P13726); experiment: SPR; average of measurements with different directionality

OD450 at 1/60 dilution [1]: > 2 od | OD450 at 1/60 dilution [2]: < 0.1 od
Substance: teplizumab-hOKT3-CD3 FSA, variant 2177 (antibody)

Kd (HER2 [3]): 0.8 nM | Kd (HER2 [4]): 0.6 nM | Kd (HER2 [5]): 0.8 nM | Kd (HER2 [6]): 0.6 nM | Kd (HER2 [7]): 0.837 nM
Substance: Fab 4D5 (control), variant 695

Kd (HER2 [7]): 0.527 nM
Substance: Variant 506, control antibody that binds HER2, based on the sequence of Herceptin

Kd (Tissue factor (TF) [8]): 0.08 nM | Kd (Tissue factor (TF) [9]): 0.08 nM | Kd (Tissue factor (TF) [10]): 0.0152 nM | Kd (Tissue factor (TF) [11]): 0.0515 nM
Substance: Fab D3H44 (control), variant 696
